The values below come from paper PMC11321701, “Generation and Characterization of Novel Pan‐Cancer Anti‐uPAR Fluorescent Nanobodies as Tools for Image‐Guided Surgery” (Advanced Science, 2024).

What is called Kd is the equilibrium constant for the complex coming apart.

Where two headings read alike, the source gives them in different places.

For test [1], the target named is T1, recombinant human urokinase plasminogen activator receptor (HuPAR) protein (Homo sapiens, UniProt Q03405).
Target sequence in this assay (Q03405 23-305): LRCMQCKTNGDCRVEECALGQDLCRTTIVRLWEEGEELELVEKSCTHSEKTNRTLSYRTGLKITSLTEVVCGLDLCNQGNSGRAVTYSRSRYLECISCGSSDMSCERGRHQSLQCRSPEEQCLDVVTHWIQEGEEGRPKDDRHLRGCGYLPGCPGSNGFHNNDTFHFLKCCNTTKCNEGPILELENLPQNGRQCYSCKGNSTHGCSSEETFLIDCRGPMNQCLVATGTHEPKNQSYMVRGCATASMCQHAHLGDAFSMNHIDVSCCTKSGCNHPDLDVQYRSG
Test [2] addresses T1, recombinant human urokinase plasminogen …. The test is described as follows: SPR; kinetic binding parameters (ka, kd, KD) of purified Nbs toward recombinant H, M or CuPAR antigens. As to conditions: both partners purified.
Target sequence in this assay (Q03405 whole entry, looked up): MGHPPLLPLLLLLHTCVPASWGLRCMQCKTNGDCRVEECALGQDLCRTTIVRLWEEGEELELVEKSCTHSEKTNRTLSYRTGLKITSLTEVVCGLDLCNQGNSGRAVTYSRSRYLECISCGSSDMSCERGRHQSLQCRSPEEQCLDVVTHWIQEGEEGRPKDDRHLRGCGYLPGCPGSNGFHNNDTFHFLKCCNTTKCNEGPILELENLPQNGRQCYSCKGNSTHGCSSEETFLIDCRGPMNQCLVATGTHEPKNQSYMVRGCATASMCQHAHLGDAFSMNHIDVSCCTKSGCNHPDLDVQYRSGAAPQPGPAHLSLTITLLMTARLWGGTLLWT
Test [3] deals with T2, recombinant murine urokinase plasminogen activator receptor (MuPAR) protein (Mus musculus, UniProt P35456).
T2 construct: 'Extracellular domain' is said of the immunogen; also called murine uPAR
T2 sequence (P35456 whole entry, looked up, the tested form may be a part): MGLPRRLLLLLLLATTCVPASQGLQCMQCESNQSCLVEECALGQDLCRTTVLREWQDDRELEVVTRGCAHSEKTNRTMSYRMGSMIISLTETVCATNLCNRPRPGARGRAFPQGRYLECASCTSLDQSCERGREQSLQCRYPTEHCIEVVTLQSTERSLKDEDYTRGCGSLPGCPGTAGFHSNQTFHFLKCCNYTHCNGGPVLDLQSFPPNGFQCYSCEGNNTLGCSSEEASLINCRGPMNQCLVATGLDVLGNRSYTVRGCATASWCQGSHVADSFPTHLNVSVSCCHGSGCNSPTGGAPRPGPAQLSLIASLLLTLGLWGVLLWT
The test is described as follows: ELISA; BE-ELISA: bacterial extracts of Nb clones on H, M or CuPAR protein, against uncoated control; cross-reactivity screening. Particulars: one partner purified.

Test [4] concerns the target T2, recombinant murine urokinase …. The test is described as follows: SPR; kinetic binding parameters (ka, kd, KD) of purified Nbs toward recombinant H, M or CuPAR antigens. As to conditions: both partners purified. On the technique in general: In SPR one partner is held on a chip, and binding of the other changes the refractive index at the surface.

B1: 5A5 (Nb 16) (VHH)
VHH: QVQLQESGGGLVQPGGSLRLSCAISGFTLDYYGIGWFRQAPGKEREGVSCISSSDGSTYYADSVKGRFTISRDNAKNTVYLQMNSLKPEDTAVYYCATRGASCYYSGSYSLGYDYWGQGTQVTVSS
As to B1, the Kd in test [1] is 3 nM.

B2: 5B7 (Nb 17) (VHH)
VHH: QVQLQESGGGLVQPGGSLRLSCAVSGSTLEYYGIGWFRQAPGKEREGVSCISSSDGSTYYADSVKGRFTISRDNAKNTVYLQMNSLKPEDTAVYYCATRGASCYYTGSYSLGYDYWGQGTQVTVSS
As for B2, in test [1], the Kd turned out to be 2.3 nM.

B3: Nb 15 (VHH)
VHH: QVQLQESGGGWVQPGGSLRLSCAASGFTLDYYGIGWFRQAPGKEREGVSCISSSDGSTYYADSVKGRFTISRDNAKNTVYLQMNSLKPEDTAVYYCATRGASCYYTGSYSLGYDYWGQGTQVTVSS
notes: Nanobody from a llama immunized with human and murine uPAR; The clone in bacterial extracts came before recloning into the expression vector, so its tags may differ from the purified form; also called anti-HuPAR Nb 15; lead anti-HuPAR/CuPAR Nanobody; source: E. coli WK6, purified from the periplasm (osmotic shock, IMAC, SEC); bacterial extracts for ELISA and SPR off-rate screening
B3: the Kd in test [2] was < 10 nM. Also, the binding result in test [3] was “no binding”.

B4: 5H2 (Nb 18) (VHH)
VHH: QVQLQESGGGLAQPGGSLRLSCTASGFTSDYYGIGWFRQAPGKEREGVSCISSSDGSTYYADSVKGRFTISRDNAKNTVYLQMNSLKPEDTAVYYCATRGASCYYTGSYSLGYDYWGQGTQVTVSS
With B4, in test [1], the Kd stood at 4.7 nM.

B5: Nb 13 (VHH)
VHH: QVQLQESGGGLVQSGGSLRLSCAVSGIGFVYYAMRWWRQAPGKERELVAGITGASGNTNYAESVKDRFTISRDNASNTVYLQMNSLKPEDTAVYYCNAAPLIRFGPPKDYWGQGTQVTVSS
notes: Nb 13 is the only member of its family; Nanobody from a llama immunized with human and murine uPAR; also called lead anti-MuPAR Nanobody; source: E. coli WK6, purified from the periplasm (osmotic shock, IMAC, SEC)
In the case of B5, in test [4], the Kd was < 10 nM.
